According to US20090324614A1 (published 2009):
Positions count from the first letter of the chain named. Values belong to the binder of their own block, whether it stands above or below them.

Key:
[1] = target: T1, soluble human FcRn (shFcRn) (human, UniProt P55899 24-297; P61769 21-119); assay: SPR 8500, hFcRn pH 7.4 (Table 11C)
T1 construct: also called soluble hFcRn; sol hFcRn

[2] = target: T2, soluble rat FcRn (rat, UniProt P13599 23-298; P07151 21-119, limits assumed); assay: SPR 8500, rat FcRn pH 6 (Table 11D)
T2 construct: also called sol rat FcRn
T2 sequence: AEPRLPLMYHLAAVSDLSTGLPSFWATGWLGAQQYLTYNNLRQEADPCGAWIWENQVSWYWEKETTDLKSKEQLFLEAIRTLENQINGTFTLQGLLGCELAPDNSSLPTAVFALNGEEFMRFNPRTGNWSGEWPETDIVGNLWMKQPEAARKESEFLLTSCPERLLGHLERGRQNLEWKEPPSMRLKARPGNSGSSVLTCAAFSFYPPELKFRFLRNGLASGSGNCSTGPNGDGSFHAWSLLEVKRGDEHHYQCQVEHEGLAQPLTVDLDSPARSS
T2 sequence (b2m): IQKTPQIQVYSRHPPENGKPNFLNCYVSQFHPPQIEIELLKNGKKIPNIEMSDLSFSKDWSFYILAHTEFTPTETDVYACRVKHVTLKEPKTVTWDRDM

[3] = target: T1, soluble human FcRn (shFcRn); assay: SPR 8500, hFcRn pH 6 (Table 12B)
[4] = target: T3, human FcRn/human β2M expressed by cells (293 C11 cells) (human, UniProt P55899 24-365; P61769 21-119); assay: FACS blocking of IgG-Fc, IgG, pH 6
T3 construct: HEK 293 cells engineered to overexpress FcRn; Whole entries named; also called hFcRn (cells); hFcRn in THP-1 and Caco-2 cells

[5] = target: T1, soluble human FcRn (shFcRn); assay: SPR 8500, hFcRn pH 7.4 (Table 12C)
[6] = target: T1, soluble human FcRn (shFcRn); assay: SPR 8500, hFcRn pH 6 (Table 11B)
[7] = target: T3, human FcRn/human β2M expressed by cells …; assay: FACS (blocking), IgG, hFcRn cells, pH 6
[8] = target: T4, rat FcRn/rat β2M expressed on cells (rat, UniProt P13599 23-366; P07151 21-119); assay: FACS blocking of IgG-Fc, IgG, pH 6
T4 construct: Cells from Neil Simister (Brandeis); also called rat FcRn (cells); rat fibroblasts expressing rat FcRn
T4 sequence: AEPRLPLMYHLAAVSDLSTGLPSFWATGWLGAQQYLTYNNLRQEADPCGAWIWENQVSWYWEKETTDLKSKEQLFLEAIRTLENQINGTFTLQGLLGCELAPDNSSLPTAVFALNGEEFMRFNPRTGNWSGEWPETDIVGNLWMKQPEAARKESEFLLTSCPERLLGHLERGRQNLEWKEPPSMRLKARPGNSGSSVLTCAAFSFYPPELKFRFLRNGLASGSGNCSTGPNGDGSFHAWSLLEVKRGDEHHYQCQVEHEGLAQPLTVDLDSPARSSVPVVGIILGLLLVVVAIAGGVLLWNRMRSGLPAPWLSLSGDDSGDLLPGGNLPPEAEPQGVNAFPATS
T4 sequence (b2m): T2 sequence (b2m)

[9] = target: T1, soluble human FcRn (shFcRn); assay: Biacore, IgG immobilized, hFcRn flowed, pH 7.4
[10] = target: T1, soluble human FcRn (shFcRn); assay: Biacore, pH 7.4
[11] = target: T1, soluble human FcRn (shFcRn); assay: Biacore, hFcRn immobilized, IgG flowed, pH 7.4
[12] = target: T1, soluble human FcRn (shFcRn); assay: Biacore, IgG immobilized, hFcRn flowed, pH 6
[13] = target: T1, soluble human FcRn (shFcRn); assay: Biacore, hFcRn immobilized, IgG flowed, pH 6
[14] = target: T1, soluble human FcRn (shFcRn); assay: Biacore, IgG immobilized, hFcRn flowed, pH 7.4; remark: listed apart in the source
[15] = target: T2, soluble rat FcRn; assay: SPR 8500, IgG, pH 7.5
[16] = target: T1, soluble human FcRn (shFcRn); assay: SPR 8500, IgG, pH 7.5
[17] = target: T2, soluble rat FcRn; assay: SPR 8500, rat FcRn pH 6 (Table 12D)
[18] = target: T2, soluble rat FcRn; assay: SPR 8500, rat FcRn pH 7.4 (Table 12E)
[19] = target: T2, soluble rat FcRn; assay: SPR 8500, IgG, pH 6
[20] = target: T1, soluble human FcRn (shFcRn); assay: SPR 8500, IgG, pH 6

B1: 3B3 mouse anti-human FcRn IgG (antibody)
chain 1: VKLQESGPELVKPGASVKISCKASGYAFSRSWMNWVKQRPGQGLEWIGRIHPGDGDTNYNGKFKGKATLTVAKSSSTAYMQLSSLTSVDSAVYFCANEGSPYFDYWGQGTTLTVSS
chain 2: DIQLTQSPTTVAASPGEKITITCSASSSISSNYLHWYQQKPGFSPKLLIYRTSNLASGVPARFSGSGSGTSYSLTIGTMEAEDVATYYCQQGSNIPLTFGAGTKLELKRADAAPTVSIFPPSSEQLTSGGASVVCFLNNFYPKDINVKWKIDGSERQNGVLNSWTDQDSKDSTYSMSSTLTLTKDEYERHNSYTCEATHKTSTSPIVKSFNKNE
- Kd [1]: 0.593 nM
- koff [1]: 0.00176 s⁻¹
- kon [1]: 2.97e+06 M⁻¹ s⁻¹
- Kd [2]: 1.5 nM
- koff [2]: 0.00104 s⁻¹
- kon [2]: 683000 M⁻¹ s⁻¹
- Kd [3]: 0.409 nM
- koff [3]: 0.00094 s⁻¹
- kon [3]: 2.3e+06 M⁻¹ s⁻¹
- IC50 [4]: 9.7 nM
- Kd [5]: 0.675 nM
- koff [5]: 0.0023 s⁻¹
- kon [5]: 3.41e+06 M⁻¹ s⁻¹
- Kd [6]: 0.34 nM
- koff [6]: 0.00131 s⁻¹
- kon [6]: 3.82e+06 M⁻¹ s⁻¹

B4: 532A-M0090-F11 (germlined LC changes) IgG (antibody)
chain 1: not shown
chain 2: QSALTQPASVSGSPGQSITISCTGTGSDVGSYNLVSWYQQHPGKAPKLMIYGDSQRPSGVSNRFSGSKSGNTASLTISGLQAEDEADYYCCSYAGSGIYVFGTGTKVTVLGQPKANPTVTLFPPSSEELQANKATLVCLISDFYPGAVTVAWKADGSPVKAGVETTKPSKQSNNKYAASSYLSLTPEQWKSHRSYSCQVTHEGSTVEKTVAPTECS
- IC50 [7]: 0.38 nM
- Kd [11]: 0.779 nM
- koff [11]: 0.000776 s⁻¹
- kon [11]: 996000 M⁻¹ s⁻¹
- Kd [12]: 29.9 nM
- koff [12]: 0.0172 s⁻¹
- kon [12]: 574000 M⁻¹ s⁻¹
- Kd [13]: 0.172 nM
- koff [13]: 0.000764 s⁻¹
- kon [13]: 4.45e+06 M⁻¹ s⁻¹
- Kd [14]: 35.2 nM
- koff [14]: 0.0152 s⁻¹
- kon [14]: 433000 M⁻¹ s⁻¹

Other lines, results leading:

- IC50 [7]: 0.43 nM
- Kd [3]: 2.44 nM
- koff [3]: 0.00248 s⁻¹
- kon [3]: 1.02e+06 M⁻¹ s⁻¹
- IC50 [4]: 2.6 nM
- IC50 [8]: 4.9 nM
- Kd [9]: 18.6 nM
- koff [9]: 0.00299 s⁻¹
- kon [9]: 161000 M⁻¹ s⁻¹
- K off Fold improvement over DX2500 [10]: 7 fold
- K off Fold improvement over M90-F11 [10]: 1 fold
- KD Fold improvement over DX2500 [10]: 5 fold
- KD Fold improvement over M90-F11 [10]: 1 fold
- Kd [11]: 0.772 nM
- koff [11]: 0.000702 s⁻¹
- kon [11]: 909000 M⁻¹ s⁻¹
- Kd [5]: 10.8 nM
- koff [5]: 0.00173 s⁻¹
- kon [5]: 159000 M⁻¹ s⁻¹
- Kd [12]: 10.3 nM
- koff [12]: 0.00312 s⁻¹
- kon [12]: 303000 M⁻¹ s⁻¹
- Kd [13]: 0.118 nM
- koff [13]: 0.000252 s⁻¹
- kon [13]: 2.13e+06 M⁻¹ s⁻¹
- Kd [14]: 20.5 nM
- koff [14]: 0.00373 s⁻¹
- kon [14]: 181000 M⁻¹ s⁻¹
- Kd [15]: 9.14 nM
- Kd [16]: 10.8 nM
- Kd [17]: 9.8 nM
- koff [17]: 0.00117 s⁻¹
- kon [17]: 119000 M⁻¹ s⁻¹
- Kd [18]: 9.14 nM
- koff [18]: 0.00114 s⁻¹
- kon [18]: 125000 M⁻¹ s⁻¹
- Kd [19]: 9.8 nM
- Kd [20]: 2.44 nM
B2: 532A-M0090-F11 IgG (antibody)
chain 1: not shown
chain 2: B4 chain 2 with A3V, Q40K, H41Y, M49I, V60L, N62S, T72S, T103S, G111S, T213A

- IC50 [7]: 0.65 nM
- Kd [9]: 87.9 nM
- koff [9]: 0.0197 s⁻¹
- kon [9]: 224000 M⁻¹ s⁻¹
- K off Fold improvement over DX2500 [10]: 1 fold
- K off Fold improvement over M90-F11 [10]: 0.15 fold
- KD Fold improvement over DX2500 [10]: 1 fold
- KD Fold improvement over M90-F11 [10]: 0.21 fold
- Kd [11]: 0.268 nM
- koff [11]: 0.000338 s⁻¹
- kon [11]: 1.26e+06 M⁻¹ s⁻¹
- Kd [12]: 27.6 nM
- koff [12]: 0.0177 s⁻¹
- kon [12]: 642000 M⁻¹ s⁻¹
- Kd [13]: 0.16 nM
- koff [13]: 0.000336 s⁻¹
- kon [13]: 2.11e+06 M⁻¹ s⁻¹
B3: DX-2500 (germlined LC & allotype HC changes) (antibody)
chain 1: not shown
chain 2: B4 chain 2
